The chains are these.
T1: Placenta Growth Factor (PlGF), human (human, UniProt P49763 21-149)
T1 chain: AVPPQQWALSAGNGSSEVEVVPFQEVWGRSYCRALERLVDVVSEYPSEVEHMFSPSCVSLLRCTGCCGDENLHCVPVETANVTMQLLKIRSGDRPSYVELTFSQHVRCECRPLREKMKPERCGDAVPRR

B1: HC 10/SLC 8 (antibody)
chain 1: GQGTLVTVSSASTKGPSVFPQPVLHQPPAMSSALGTTIRLTCTLRNDHDIGVYSVYWYQQRPGHPPRFLLRYFSQSDKSQGPQVPPRFSGSKDVARNRGYLSISELQPEDEAMYYCAMGARSRCWPRGFQSKHNSVTHVFGSGTQLTVLSQPKATPSVTLFPPSSEELQANKATLVCLMNDFYPGILTVTWKADGTPITQGVEMTTPSKQSNNKYAASSYLSLTPEQWRSRRSYSCQVMHEGSTVEKTVAPAECS
chain 2: MSWAPVLLMLFVYCTGCGPQPVLHQPPAMSSALGTTIRLTCTLRNDHDIGVYSVYWYQQRPGHPPRFLLRYFSQSDKSQGPQVPPRFSGSKDVARNRGYLSISVTHVFGSGTQLTVLSQPKATPSQVQLVQ
B2: HC 3/SLC 8 (antibody)
chain 1: GQGTLVTVSSASTQPVLHQPPAMSSALGTTIRLTCTLRNDHDIGVYSVYWYQQRPGHPPRFLLRYFSQSDKSQGPQVPPRFSGSKDVARNRGYLSISELQPEDEAMYYCAMGARSRCWPRGFQSKHNSVTHVFGSGTQLTVLSQPKATPSVTLFPPSSEELQANKATLVCLMNDFYPGILTVTWKADGTPITQGVEMTTPSKQSNNKYAASSYLSLTPEQWRSRRSYSCQVMHEGSTVEKTVAPAECS
chain 2: B1 chain 2
B3: HC 10/SLC 4 (antibody)
chain 1: B1 chain 1
chain 2: MSWAPVLLMLFVYCTGCGPQPVLHQPPAMSSALGTTIRLTCTLRNDHDIGVYSVYWYQQRPGHPPRFLLRYFSQSDKSQGPQVPPRFSGSKDVARNRGYLSISVTHVFGSGTQLTVLSQPKQVQLVQ
B4: HC 10/SLC 6 (antibody)
chain 1: B1 chain 1
chain 2: MSWAPVLLMLFVYCTGCGPQPVLHQPPAMSSALGTTIRLTCTLRNDHDIGVYSVYWYQQRPGHPPRFLLRYFSQSDKSQGPQVPPRFSGSKDVARNRGYLSISVTHVFGSGTQLTVLSQPKATQVQLVQ
B5: HC 3/SLC 5 (antibody)
chain 1: B2 chain 1
chain 2: MSWAPVLLMLFVYCTGCGPQPVLHQPPAMSSALGTTIRLTCTLRNDHDIGVYSVYWYQQRPGHPPRFLLRYFSQSDKSQGPQVPPRFSGSKDVARNRGYLSISVTHVFGSGTQLTVLSQPKAQVQLVQ
B6: HC 5/SLC 2 (antibody)
chain 1: GQGTLVTVSSASTKGQPVLHQPPAMSSALGTTIRLTCTLRNDHDIGVYSVYWYQQRPGHPPRFLLRYFSQSDKSQGPQVPPRFSGSKDVARNRGYLSISELQPEDEAMYYCAMGARSRCWPRGFQSKHNSVTHVFGSGTQLTVLSQPKATPSVTLFPPSSEELQANKATLVCLMNDFYPGILTVTWKADGTPITQGVEMTTPSKQSNNKYAASSYLSLTPEQWRSRRSYSCQVMHEGSTVEKTVAPAECS
chain 2: MSWAPVLLMLFVYCTGCGPQPVLHQPPAMSSALGTTIRLTCTLRNDHDIGVYSVYWYQQRPGHPPRFLLRYFSQSDKSQGPQVPPRFSGSKDVARNRGYLSISVTHVFGSGTQLTVLSQQVQLVQ
B7: HC 5/SLC 6 (antibody)
chain 1: B6 chain 1
chain 2: B4 chain 2
B8: HC 9/SLC 9 (antibody)
chain 1: GQGTLVTVSSASTKGPSVFQPVLHQPPAMSSALGTTIRLTCTLRNDHDIGVYSVYWYQQRPGHPPRFLLRYFSQSDKSQGPQVPPRFSGSKDVARNRGYLSISELQPEDEAMYYCAMGARSRCWPRGFQSKHNSVTHVFGSGTQLTVLSQPKATPSVTLFPPSSEELQANKATLVCLMNDFYPGILTVTWKADGTPITQGVEMTTPSKQSNNKYAASSYLSLTPEQWRSRRSYSCQVMHEGSTVEKTVAPAECS
chain 2: MSWAPVLLMLFVYCTGCGPQPVLHQPPAMSSALGTTIRLTCTLRNDHDIGVYSVYWYQQRPGHPPRFLLRYFSQSDKSQGPQVPPRFSGSKDVARNRGYLSISVTHVFGSGTQLTVLSQPKATPSVQVQLVQ
B9: HC 6/SLC 4 (antibody)
chain 1: GQGTLVTVSSASTKGPQPVLHQPPAMSSALGTTIRLTCTLRNDHDIGVYSVYWYQQRPGHPPRFLLRYFSQSDKSQGPQVPPRFSGSKDVARNRGYLSISELQPEDEAMYYCAMGARSRCWPRGFQSKHNSVTHVFGSGTQLTVLSQPKATPSVTLFPPSSEELQANKATLVCLMNDFYPGILTVTWKADGTPITQGVEMTTPSKQSNNKYAASSYLSLTPEQWRSRRSYSCQVMHEGSTVEKTVAPAECS
chain 2: B3 chain 2
B10: HC 2/SLC 4 (antibody)
chain 1: GQGTLVTVSSASQPVLHQPPAMSSALGTTIRLTCTLRNDHDIGVYSVYWYQQRPGHPPRFLLRYFSQSDKSQGPQVPPRFSGSKDVARNRGYLSISELQPEDEAMYYCAMGARSRCWPRGFQSKHNSVTHVFGSGTQLTVLSQPKATPSVTLFPPSSEELQANKATLVCLMNDFYPGILTVTWKADGTPITQGVEMTTPSKQSNNKYAASSYLSLTPEQWRSRRSYSCQVMHEGSTVEKTVAPAECS
chain 2: B3 chain 2
B11: HC 3/SLC 4 (antibody)
chain 1: B2 chain 1
chain 2: B3 chain 2
B12: HC 2/SLC 6 (antibody)
chain 1: B10 chain 1
chain 2: B4 chain 2
B13: HC 7/SLC 15 (antibody)
chain 1: GQGTLVTVSSASTKGPSQPVLHQPPAMSSALGTTIRLTCTLRNDHDIGVYSVYWYQQRPGHPPRFLLRYFSQSDKSQGPQVPPRFSGSKDVARNRGYLSISELQPEDEAMYYCAMGARSRCWPRGFQSKHNSVTHVFGSGTQLTVLSQPKATPSVTLFPPSSEELQANKATLVCLMNDFYPGILTVTWKADGTPITQGVEMTTPSKQSNNKYAASSYLSLTPEQWRSRRSYSCQVMHEGSTVEKTVAPAECS
chain 2: MSWAPVLLMLFVYCTGCGPQPVLHQPPAMSSALGTTIRLTCTLRNDHDIGVYSVYWYQQRPGHPPRFLLRYFSQSDKSQGPQVPPRFSGSKDVARNRGYLSISVTHVFGSGTQLTVLSQPKATPSVTGGGGSQVQLVQ

Sequence of Hepatocyte Growth Factor (HGF), human (P14210 32-728): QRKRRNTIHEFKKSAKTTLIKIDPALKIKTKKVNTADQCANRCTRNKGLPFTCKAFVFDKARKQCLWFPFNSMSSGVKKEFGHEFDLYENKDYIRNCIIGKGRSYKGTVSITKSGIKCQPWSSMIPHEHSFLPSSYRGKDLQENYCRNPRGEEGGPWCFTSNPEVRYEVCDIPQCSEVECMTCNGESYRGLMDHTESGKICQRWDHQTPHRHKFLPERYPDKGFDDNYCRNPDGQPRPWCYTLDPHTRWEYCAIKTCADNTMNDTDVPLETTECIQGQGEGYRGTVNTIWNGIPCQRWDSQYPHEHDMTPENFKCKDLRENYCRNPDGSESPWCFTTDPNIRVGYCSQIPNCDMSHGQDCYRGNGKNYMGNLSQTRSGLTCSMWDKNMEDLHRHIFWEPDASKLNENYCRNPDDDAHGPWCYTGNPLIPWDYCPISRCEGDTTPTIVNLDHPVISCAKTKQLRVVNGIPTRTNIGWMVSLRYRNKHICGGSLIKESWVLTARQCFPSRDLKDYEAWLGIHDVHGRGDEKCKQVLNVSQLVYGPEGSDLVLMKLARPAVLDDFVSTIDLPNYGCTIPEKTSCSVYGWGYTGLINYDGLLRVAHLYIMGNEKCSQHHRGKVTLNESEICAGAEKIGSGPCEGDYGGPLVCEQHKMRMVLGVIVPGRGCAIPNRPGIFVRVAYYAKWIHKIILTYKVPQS

The first test has as its target Hepatocyte Growth Factor (HGF), human (human, UniProt P14210 32-728). The experiment in a line: ELISA.
As for B1, the concentration for a half-maximal effect (EC50) (as a rule, the midpoint of the concentration-response curve) is 0.048 nM.

Turning to B2, the 50% effective concentration (EC50) was 0.056 nM.

With B3, the 50% effective concentration (EC50) came to 0.07 nM.

With B4, the EC50 came to 0.061 nM.

B5 displayed a concentration giving a half-maximal response (EC50) of 0.054 nM.

Turning to B6, it took 0.051 nM to reach a half-maximal effect (EC50).

On to B7, for which the EC50 stood at 0.059 nM.

In turn, B8 showed an EC50 of 0.058 nM.

As for B9, the EC50 amounted to 0.06 nM.

The molecule B10 had an EC50 of 0.058 nM.

On to B11, for which the EC50 is 0.067 nM.

In turn, B12 showed a concentration giving a half-maximal response (EC50) of 0.056 nM.

Turning to B13, the EC50 came out at 0.053 nM.

A further test has as its target T1, Placenta Growth Factor (PlGF), human. The experiment in a line: ELISA. On the technique in general: In an ELISA, binding on a coated surface is turned into a signal by an enzyme label.
In the case of B1, the response was half-maximal at 0.046 nM (EC50).

In turn, B2 registered an EC50 of 0.157 nM.

In turn, B3 returned an EC50 of 0.153 nM.

B4: the 50% effective concentration (EC50) was found to be 0.089 nM.

With B5, the EC50 is 0.249 nM.

Regarding B6, the concentration giving a half-maximal response (EC50) was 0.197 nM.

In the case of B7, the EC50 amounted to 0.157 nM.

B8 displayed a concentration for a half-maximal effect (EC50) of 0.046 nM.

As for B9, a half-maximal effect (EC50) was put at 0.191 nM.

Turning to B10, it took 0.175 nM to reach a half-maximal effect (EC50).

In the case of B11, the 50% effective concentration (EC50) stood at 0.22 nM.

In turn, B12 returned an EC50 of 0.161 nM.

For B13, the response was half-maximal at 0.052 nM (EC50).

The record behind these values is US20150045540A1 (published 2015).
